Experimental data as given in patent publication US20070014720A1 (published 2007).
Blank lines part the entries; values can stand above or below the binder they belong to.

What was measured:
human CD20 [1] = target: T1, human CD20 (human, UniProt P11836 1-297); assay: FACS KD on SB cells expressing CD20 (GMF against mAb concentration, nonlinear fit)
T1 construct: whole, on cells; In all assays CD20 stood on cells; also called CD20 antigen
T1 sequence (looked up): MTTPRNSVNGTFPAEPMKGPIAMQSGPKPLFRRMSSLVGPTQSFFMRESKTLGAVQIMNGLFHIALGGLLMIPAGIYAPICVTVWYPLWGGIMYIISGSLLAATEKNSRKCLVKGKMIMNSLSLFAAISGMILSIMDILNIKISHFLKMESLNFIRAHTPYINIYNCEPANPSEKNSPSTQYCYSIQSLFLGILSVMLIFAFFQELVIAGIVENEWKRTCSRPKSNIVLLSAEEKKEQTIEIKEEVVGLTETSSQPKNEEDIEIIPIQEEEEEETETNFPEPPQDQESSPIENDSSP
Experimental: The affinity of purified antibodies against CD20 (mAbs 1.1.2, 1.2.1, 2.1.2, 1.3.3, 1.5.3, 1.10.3.1, 1.13.2), Rituximab (positive control), and B1 was determined by FACS. Briefly, SB cells expressing CD20 were resuspended in FACS buffer (2% FBS, 0.05% NaN₃) at a concentration of approximately 5 million cells/mL. HSB cells were also resuspended in FACS buffer at a concentration of approximately 9 million cells/mL. Cells were kept on ice. Purified antibodies were serially diluted in filtered 1×PBS (2×) across 11 wells in 96-well plates. The twelfth well in each row contained buffer only. 1×PBS and cells were added to each mAb well such that the final volume was […] and each well contained approximately 375,000 cells. The final molecular concentration ranges for the mAbs were as follows:
Plates were placed on a plate shaker for 3 hours at 4° C., then spun and washed 3× with PBS. 200 μL of 145 nM Cy5 goat α-human polyclonal antibody was added to each well, and 200 μL of 192 nM Cy5 goat α-mouse polyclonal antibody was added to the cells complexed with B1 antibody. Plates were then incubated for 40 minutes at 4° C., then spun and washed 3× with PBS.
The Geometric Mean Fluorescence (GMF) of 10,000 cells for each mAb concentration was determined using a FACSCalibur instrument. No significant nonspecific binding (no significant signal) was apparent from the HSB cells. In each row containing the SB cells, the signal from the twelfth well (containing buffer only) was subtracted from the signal from the first 11 wells. A nonlinear plot of GMF as a function of molecular mAb concentration was fit using Scientist software using the equation: […]

human CD20 [2] = target: T1, human CD20; assay: cell-based or functional assay

Kd (human CD20 [1]): 11.9 nM | % Lysis Daudi 0.001 µg/ml ADCC (human CD20 [2]): 56% | % Lysis Daudi 1 µg/ml ADCC (human CD20 [2]): 86% | % Lysis Raji 0.001 µg/ml ADCC (human CD20 [2]): 8% | % Lysis Raji 1 µg/ml ADCC (human CD20 [2]): 45% | % Lysis Ramos 0.001 µg/ml ADCC (human CD20 [2]): 8% | % Lysis Ramos 1 µg/ml ADCC (human CD20 [2]): 67% | EC50 µg/ml Daudi CDC (human CD20 [2]): > 10 µg/mL | EC50 µg/ml Raji CDC (human CD20 [2]): > 10 µg/mL | EC50 µg/ml Ramos Apoptosis Cell Titer Glo (human CD20 [2]): 15.2 µg/mL | EC50 µg/ml Ramos CDC (human CD20 [2]): > 10 µg/mL
B1: mAb 1.2.1 (antibody, human IgG1, V domains shown)
VH: EVQLVQSGAEVKKPGESLKISCKGSGYSFTSYWIGWVRQMPGKGLEWMGIIYPGDSDTRYSPSFQGQVTISADKSISTAYLQWSSLKASDTAMYYCARLGDYYNYYGMDVWGQGTTVTVSS
VL: DIVMTQTPLSSPVTLGQPASISCRSSQSLVHSDGKTYLSWLQQRPGQPPRLLIYKSSNRFSGVPDRFSGSGAGTDFTLKISRVEAEDVGVYYCVQATQFPITFGQGTRLEIK
notes: Human IgG1 kappa; also called 1.2.1.1; 50-001H1_2_1_1

Kd (human CD20 [1]): 8.9 nM | % Lysis Daudi 0.001 µg/ml ADCC (human CD20 [2]): 63% | % Lysis Daudi 1 µg/ml ADCC (human CD20 [2]): 88% | % Lysis Raji 0.001 µg/ml ADCC (human CD20 [2]): 9% | % Lysis Raji 1 µg/ml ADCC (human CD20 [2]): 33% | % Lysis Ramos 0.001 µg/ml ADCC (human CD20 [2]): 10% | % Lysis Ramos 1 µg/ml ADCC (human CD20 [2]): 58% | EC50 µg/ml Daudi CDC (human CD20 [2]): 1.91 µg/mL | EC50 µg/ml Raji CDC (human CD20 [2]): 0.22 µg/mL | EC50 µg/ml Ramos Apoptosis Alamar Blue (human CD20 [2]): 0.0485 µg/mL | EC50 µg/ml Ramos Apoptosis Annexin V (human CD20 [2]): 0.886 µg/mL | EC50 µg/ml Ramos Apoptosis Cell Titer Glo (human CD20 [2]): 0.332 µg/mL | EC50 µg/ml Ramos Apoptosis WST-1 (human CD20 [2]): 0.0096 µg/mL | EC50 µg/ml Ramos CDC (human CD20 [2]): 0.23 µg/mL
B2: mAb 1.3.3 (antibody, V domains shown)
VH: EVQLVQSGAEVKKPGESLKISCKGSGYSFTSYWIGWVRQMPGKGLEWMGIIYPGDSDTRYSPSFQGQVTISADKSITTAYLQWSSLKASDTAMYYCARHPSYGSGSPNFDYWGQGTLVTVSS
VL: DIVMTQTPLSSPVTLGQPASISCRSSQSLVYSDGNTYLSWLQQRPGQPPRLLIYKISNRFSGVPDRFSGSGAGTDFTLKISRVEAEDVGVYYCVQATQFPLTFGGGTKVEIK
notes: Human IgG1 kappa
